Here are results for 1 molecule from patent US20260250396A1 (TRUEBINDING, published 2026).

For orientation: Kd means the constant that tells how readily two partners part at equilibrium. A low value points to higher affinity.

For the test, the target named is T1, human Galectin-3 (human, UniProt P17931 1-250, limits assumed).
T1 construct: also called Gal-3; Gal3
Description: in vitro affinity; method and format not stated.

T1 sequence (P17931 whole entry): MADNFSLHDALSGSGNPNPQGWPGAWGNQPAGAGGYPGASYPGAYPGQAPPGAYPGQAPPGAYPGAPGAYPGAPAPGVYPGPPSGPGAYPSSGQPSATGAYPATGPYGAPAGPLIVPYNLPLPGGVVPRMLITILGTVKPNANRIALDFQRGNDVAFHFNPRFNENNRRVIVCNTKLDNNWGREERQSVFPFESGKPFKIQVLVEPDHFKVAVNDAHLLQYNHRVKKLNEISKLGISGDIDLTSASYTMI

B1: TB006 (antibody, human IgG4 S228P, kappa, V domains shown)
VH: QVQLVQSGAEVKKPGASVKVSCKASGYSFTNYYMHWVRQAPGQRLEWMGWIYPGSGNTNYNEKFQGRVTITADTSASTAYMELSSLRSEDTAVYYCSTAPGGFDVWGQGTTVTVSS
VL: DIVMTQTPLSLSVTPGQPASISCKSSKSLLHSDGITYLYWYLQKPGQSPQLLIYRMSNLASGVPDRFSGSGSGTDFTLKISRVEAEDVGVYYCAQMLEFPLTFGQGTKLEIKR
notes: also called anti-Gal3 antibody; humanized IgG4 (S228P) type monoclonal antibody
Molecule B1 returned an equilibrium dissociation constant (Kd) of 8.4 nM.
